Experimental data: article PMC5447866 (Oncogene, 2016)

Biological target: His6-tagged UBR5 recombinant protein (UniProt O95071 1-2799)
Assay: pull-down

Sequence of His6-tagged UBR5 recombinant protein (O95071 whole entry): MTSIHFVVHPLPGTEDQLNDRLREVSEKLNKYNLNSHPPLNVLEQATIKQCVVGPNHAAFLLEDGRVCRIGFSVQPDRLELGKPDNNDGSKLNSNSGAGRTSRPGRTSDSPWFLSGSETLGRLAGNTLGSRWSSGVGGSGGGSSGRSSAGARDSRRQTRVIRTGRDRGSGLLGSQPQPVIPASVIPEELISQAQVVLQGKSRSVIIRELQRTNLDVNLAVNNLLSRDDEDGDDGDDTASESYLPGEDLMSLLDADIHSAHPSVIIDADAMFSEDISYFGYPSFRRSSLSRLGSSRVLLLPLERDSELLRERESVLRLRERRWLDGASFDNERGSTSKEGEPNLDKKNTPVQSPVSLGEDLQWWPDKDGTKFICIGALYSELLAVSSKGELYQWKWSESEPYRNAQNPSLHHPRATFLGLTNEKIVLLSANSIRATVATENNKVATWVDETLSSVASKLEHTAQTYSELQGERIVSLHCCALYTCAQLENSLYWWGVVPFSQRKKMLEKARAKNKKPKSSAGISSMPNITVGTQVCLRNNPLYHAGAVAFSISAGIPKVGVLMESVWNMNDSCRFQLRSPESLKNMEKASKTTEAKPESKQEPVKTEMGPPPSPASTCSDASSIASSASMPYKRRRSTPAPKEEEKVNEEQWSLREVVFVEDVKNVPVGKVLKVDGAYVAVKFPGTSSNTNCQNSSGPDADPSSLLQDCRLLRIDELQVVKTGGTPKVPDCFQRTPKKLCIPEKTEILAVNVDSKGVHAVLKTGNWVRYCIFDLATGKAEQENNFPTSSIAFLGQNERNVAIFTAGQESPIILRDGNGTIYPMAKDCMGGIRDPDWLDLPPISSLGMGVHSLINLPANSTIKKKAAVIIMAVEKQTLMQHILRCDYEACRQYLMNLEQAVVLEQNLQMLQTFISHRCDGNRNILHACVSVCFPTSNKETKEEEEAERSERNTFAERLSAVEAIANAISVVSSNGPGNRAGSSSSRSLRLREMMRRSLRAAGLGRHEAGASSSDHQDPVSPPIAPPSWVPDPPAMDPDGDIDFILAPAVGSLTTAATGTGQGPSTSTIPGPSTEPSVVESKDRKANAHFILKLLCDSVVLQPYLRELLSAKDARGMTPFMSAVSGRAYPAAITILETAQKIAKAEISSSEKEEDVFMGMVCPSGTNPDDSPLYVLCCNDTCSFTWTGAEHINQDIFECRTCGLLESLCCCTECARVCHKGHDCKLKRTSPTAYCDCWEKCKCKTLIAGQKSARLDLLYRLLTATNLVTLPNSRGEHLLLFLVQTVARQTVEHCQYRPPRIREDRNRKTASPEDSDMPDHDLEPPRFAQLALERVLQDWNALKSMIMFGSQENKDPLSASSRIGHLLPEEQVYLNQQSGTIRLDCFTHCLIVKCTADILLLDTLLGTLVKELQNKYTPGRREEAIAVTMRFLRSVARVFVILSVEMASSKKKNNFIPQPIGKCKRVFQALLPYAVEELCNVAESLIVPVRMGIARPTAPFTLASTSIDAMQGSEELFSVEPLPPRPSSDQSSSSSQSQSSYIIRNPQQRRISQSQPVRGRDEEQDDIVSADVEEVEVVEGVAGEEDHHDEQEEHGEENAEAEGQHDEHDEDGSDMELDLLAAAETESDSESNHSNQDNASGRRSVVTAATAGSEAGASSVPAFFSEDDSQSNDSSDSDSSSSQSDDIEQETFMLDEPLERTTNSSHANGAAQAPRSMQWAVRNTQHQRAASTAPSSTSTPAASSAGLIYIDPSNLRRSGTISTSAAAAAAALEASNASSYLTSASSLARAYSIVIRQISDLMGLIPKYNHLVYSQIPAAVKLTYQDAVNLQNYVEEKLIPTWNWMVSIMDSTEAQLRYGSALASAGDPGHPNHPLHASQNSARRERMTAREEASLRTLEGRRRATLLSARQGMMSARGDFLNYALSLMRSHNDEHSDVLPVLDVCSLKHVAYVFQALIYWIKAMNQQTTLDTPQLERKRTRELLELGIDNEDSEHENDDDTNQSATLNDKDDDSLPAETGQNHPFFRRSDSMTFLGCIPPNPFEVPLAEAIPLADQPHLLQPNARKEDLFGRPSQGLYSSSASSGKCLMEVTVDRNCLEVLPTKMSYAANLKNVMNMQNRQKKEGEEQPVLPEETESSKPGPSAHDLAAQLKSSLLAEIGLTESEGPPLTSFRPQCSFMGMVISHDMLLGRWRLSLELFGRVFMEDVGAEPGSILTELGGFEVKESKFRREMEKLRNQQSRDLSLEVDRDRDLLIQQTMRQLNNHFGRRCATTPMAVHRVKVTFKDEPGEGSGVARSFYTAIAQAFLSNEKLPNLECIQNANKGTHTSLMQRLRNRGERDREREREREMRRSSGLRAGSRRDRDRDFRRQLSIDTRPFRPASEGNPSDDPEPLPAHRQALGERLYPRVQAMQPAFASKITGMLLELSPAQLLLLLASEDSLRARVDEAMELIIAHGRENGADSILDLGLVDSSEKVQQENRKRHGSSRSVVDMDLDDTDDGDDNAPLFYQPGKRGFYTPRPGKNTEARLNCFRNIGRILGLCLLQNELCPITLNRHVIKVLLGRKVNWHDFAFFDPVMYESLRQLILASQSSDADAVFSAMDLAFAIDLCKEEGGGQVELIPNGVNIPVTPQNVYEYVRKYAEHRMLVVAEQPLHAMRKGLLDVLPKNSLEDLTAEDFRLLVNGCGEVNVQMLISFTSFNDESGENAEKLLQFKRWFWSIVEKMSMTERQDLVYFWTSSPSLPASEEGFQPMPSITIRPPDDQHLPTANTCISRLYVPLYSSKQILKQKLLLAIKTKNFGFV

- binding result: binds
B1: GST-tagged MOAP-1 recombinant protein (natural protein, UniProt Q96BY2 1-351, looked up)
chain: MTLRLLEDWCRGMDMNPRKALLIAGISQSCSVAEIEEALQAGLAPLGEYRLLGRMFRRDENRKVALVGLTAETSHALVPKEIPGKGGIWRVIFKPPDPDNTFLSRLNEFLAGEGMTVGELSRALGHENGSLDPEQGMIPEMWAPMLAQALEALQPALQCLKYKKLRVFSGRESPEPGEEEFGRWMFHTTQMIKAWQVPDVEKRRRLLESLRGPALDVIRVLKINNPLITVDECLQALEEVFGVTDNPRELQVKYLTTYQKDEEKLSAYVLRLEPLLQKLVQRGAIERDAVNQARLDQVIAGAVHKTIRRELNLPEDGPAPGFLQLLVLIKDYEAAEEEEALLQAILEGNFT
